# Source: US7569748 (WISCONSIN ALUMNI RESEARCH FOUNDATION, dated 2009)
# T1: TcbAiii (Photorhabdus luminescens strain W-14)
# T1 construct: Processed peptide of TcbA; also detected in E. coli preparations expressing tcbA constructs; also called B2; 58 kDa peptide of toxin B
# T1 chain: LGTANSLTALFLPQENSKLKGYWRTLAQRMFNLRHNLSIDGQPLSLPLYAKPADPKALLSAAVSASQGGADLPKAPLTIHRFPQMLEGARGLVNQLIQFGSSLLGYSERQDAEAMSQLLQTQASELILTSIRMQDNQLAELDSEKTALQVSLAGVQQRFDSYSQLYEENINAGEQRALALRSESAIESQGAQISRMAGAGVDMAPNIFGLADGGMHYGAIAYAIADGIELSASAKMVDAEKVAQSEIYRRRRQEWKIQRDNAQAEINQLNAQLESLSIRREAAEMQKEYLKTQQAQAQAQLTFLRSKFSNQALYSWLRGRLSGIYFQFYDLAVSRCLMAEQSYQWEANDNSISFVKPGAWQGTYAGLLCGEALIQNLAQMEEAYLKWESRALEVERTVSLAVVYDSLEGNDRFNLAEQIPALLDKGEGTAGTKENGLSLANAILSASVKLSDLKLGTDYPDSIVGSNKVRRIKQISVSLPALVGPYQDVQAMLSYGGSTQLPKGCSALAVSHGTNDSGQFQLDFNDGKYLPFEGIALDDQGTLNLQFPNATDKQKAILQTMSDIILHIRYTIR
# T2: TcdAiii (Photorhabdus luminescens strain W-14)
# T2 construct: Processed peptide of TcdA; also called A2
# T2 chain: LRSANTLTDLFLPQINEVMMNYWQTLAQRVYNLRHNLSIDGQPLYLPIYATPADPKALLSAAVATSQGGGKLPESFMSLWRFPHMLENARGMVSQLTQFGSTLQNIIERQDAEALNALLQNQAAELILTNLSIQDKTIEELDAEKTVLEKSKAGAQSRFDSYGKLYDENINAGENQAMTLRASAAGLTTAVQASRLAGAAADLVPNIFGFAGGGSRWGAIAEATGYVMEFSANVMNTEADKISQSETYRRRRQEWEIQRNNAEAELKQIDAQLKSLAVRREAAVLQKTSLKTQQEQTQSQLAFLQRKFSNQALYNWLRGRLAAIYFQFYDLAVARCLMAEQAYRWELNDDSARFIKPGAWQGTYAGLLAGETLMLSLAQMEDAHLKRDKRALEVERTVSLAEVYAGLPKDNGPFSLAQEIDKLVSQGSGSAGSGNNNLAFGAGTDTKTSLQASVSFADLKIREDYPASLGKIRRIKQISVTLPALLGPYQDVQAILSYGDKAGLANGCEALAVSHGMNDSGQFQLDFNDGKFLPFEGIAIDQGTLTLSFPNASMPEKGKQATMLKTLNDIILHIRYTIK
# Legend:
# [1] = tested on: TcbA (native, from W-14 broth)
# [2] = molecular target: T1, TcbAiii; assay: native PAGE (one major band), gel filtration 860 kDa, same molar concentration
# [3] = molecular target: T2, TcdAiii; assay: native PAGE (one major band), gel filtration 860 kDa, 1 to 1 molar ratio by densitometry
molecule,measurement,setting,value
38 kDa W-14 Photorhabdus metalloprotease,TcbA (% of total protein) after 38 kDa protease treatment (control 58) (% of total protein),[1],18
same,cleavage of TcbA followed by SDS-PAGE densitometry,[1],the amount of peptides TcbAii and TcbAiii increased about 3-fold while the amount of TcbA peptide decreased proportionally
58 kDa W-14 Photorhabdus metalloprotease,cleavage of TcbA followed by SDS-PAGE densitometry,[1],the amount of peptides TcbAii and TcbAiii increased about 3-fold while the amount of TcbA peptide decreased proportionally
"TcbAii (other, Processed peptide of TcbA; also called B1; 201 kDa peptide) FIQGYSDLFGNRADNYAAPGSVASMFSPAAYLTELYREAKNLHDSSSIYYLDKRRPDLASLMLSQKNMDEEISTLALSNELCLAGIETKTGKSQDEVMDMLSTYRLSGETPYHHAYETVREIVHERDPGFRHLSQAPIVAAKLDPVTLLGISSHISPELYNLLIEEIPEKDEAALDTLYKTNFGDITTAQLMSPSYLARYYGVSPEDIAYVTTSLSHVGYSSDILVIPLVDGVGKMEVVRVTRTPSDNYTSQTNYIELYPQGGDNYLIKYNLSNSFGLDDFYLQYKDGSADWTEIAHNPYPDMVINQKYESQATIKRSDSDNILSIGLQRWHSGSYNFAAANFKIDQYSPKAFLLKMNKAIRLLKATGLSFATLERIVDSVNSTKSITVEVLNKVYRVKFYIDRYGISEETAAILANINISQQAVGNQLSQFEQLFNHPPLNGIRYEISEDNSKHLPNPDLNLKPDSTGDDQRKAVLKRAFQVNASELYQMLLITDRKEDGVIKNNLENLSDLYLVSLLAQIHNLTIAELNILLVICGYGDTNIYQITDDNLAKIVETLLWITQWLKTQKWTVTDLFLMTTATYSTTLTPEISNLTATLSSTLHGKESLIGEDLKRAMAPCFTSALHLTSQEVAYDLLLWIDQIQPAQITVDGFWEEVQTTPTSLKVITFAQVLAQLSLIYRRIGLSETELSLIVTQSSLLVAGKSILDHGLLTLMALEGFHTWVNGLGQHASLILAALKDGALTVTDVAQAMNKEESLLQMAANQVEKDLTKLTSWTQIDAILQWLQMSSALAVSPLDLAGMMALKYGIDHNYAAWQAAAAALMADHANQAQKKLDETFSKALCNYYINAVVDSAAGVRDRNGLYTYLLIDNQVSADVITSRIAEAIAGIQLYVNRALNRDEGQLASDVSTRQFFTDWERYNKRYSTWAGVSELVYYPENYVDPTQRIGQTKMMDALLQSINQSQLNADTVEDAFKTYLTSFEQVANLKVISAYHDNVNVDQGLTYFIGIDQAAPGTYYWRSVDHSKCENGKFAANAWGEWNKITCAVNPWKNIIRPVVYMSRLYLLWLEQQSKKSDDGKTTIYQYNLKLAHIRYDGSWNTPFTFDVTEKVKNYTSSTDAAESLGLYCTGYQGEDTLLVMFYSMQSSYSSYTDNNAPVTGLYIFADMSSDNMTNAQATNYWNNSYPQFDTVMADPDSDNKKVITRRVNNRYAEDYEIPSSVTSNSNYSWGDHSLTMLYGGSVPNITFESAAEDLRLSTNMALSIIHNGYAGTRRIQCNLMKQYASLGDKFIIYDSSFDDANRFNLVPLFKFGKDENSDDSICIYNENPSSEDKKWYFSSKDDNKTADYNGGTQCIDAGTSNKDFYYNLQEIEVISVTGGYWSSYKISNPININTGIDSAKVKVTVKAGGDDQIFTADNSTYVPQQPAPSFEEMIYQFNNLTIDCKNLNFIDNQAHIEIDFTATAQDGRFLGAETFIIPVTKKVLGTENVIALYSENNGVQYMQIGAYRTRLNTLFAQQLVSRANRGIDAVLSMETQNIQEPQLGAGTYVQLVLDKYDESIHGTNKSFAIEYVDIFKENDSFVIYQGELSETSQTVVKVFLSYFIEATGNKNHLWVRAKYQKETTDKILFDRTDEKDPHGWFLSDDHKTFSGLSSAQALKNDSEPMDFSGANALYFWELFYYTPMMMAHRLLQEQNFDAANHWFRYVWSPSGYIVDGKIAIYHWNVRPLEEDTSWNAQQLDSTDPDAVAQDDPMHYKVATFMATLDLLMARGDAAYRQLERDTLAEAKMWYTQALNLLGDEPQVMLSTTWANPTLGNAASKTTQQVRQQVLTQLRLNSRVKTPL",binding result,[2],binds
"TcdAii (other, Processed peptide of TcdA; also called A1) LIGYNNQFSGRASQYVAPGTVSSMFSPAAYLTELYREARNLHASDSVYYLDTRRPDLKSMALSQQNMDIELSTLSLSNELLLESIKTESKLENYTKVMEMLSTFRPSGATPYHDAYENVREVIQLQDPGLEQLNASPAIAGLMHQASLLGINASISPELFNILTEEITEGNAEELYKKNFGNIEPASLAMPEYLKRYYNLSDEELSQFIGKASNFGQQEYSNNQLITPVVNSSDGTVKVYRITREYTTNAYQMDVELFPFGGENYRLDYKFKNFYNASYLSIKLNDKRELVRTEGAPQVNIEYSANITLNTADISQPFEIGLTRVLPSGSWAYAAAKFTVEEYNQYSFLLKLNKAIRLSRATELSPTILEGIVRSVNLQLDINTDVLGKVFLTKYYMQRYAIHAETALILCNAPISQRSYDNQPSQFDRLFNTPLLNGQYFSTGDEEIDLNSGSTGDWRKTILKRAFNIDDVSLFRLLKITDHDNKDGKIKNNLKNLSNLYIGKLLADIHQLTIDELDLLLIAVGEGKTNLSAISDKQLATLIRKLNTITSWLHTQKWSVFQLFIMTSTSYNKTLTPEIKNLLDTVYHGLQGFDKDKADLLHVMAPYIAATLQLSSENVAHSVLLWADKLQPGDGAMTAEKFWDWLNTKYTPGSSEAVETQEHIVQYCQALAQLEMVYHSTGINENAFRLFVTKPEMFGAATGAAPAHDALSLIMLTRFADWVNALGEKASSVLAAFEANSLTAEQLADAMNLDANLLLQASIQAQNHQHLPPVTPENAFSCWTSINTILQWVNVAQQLNVAPQGVSALVGLDYIQSMKETPTYAQWENAAGVLTAGLNSQQANTLHAFLDESRSAALSTYYIRQVAKAAAAIKSRDDLYQYLLIDNQVSAAIKTTRIAEAIASIQLYVNRALENVEENANSGVISRQFFIDWDKYNKRYSTWAGVSQLVYYPENYIDPTMRIGQTKMMDALLQSVSQSQLNADTVEDAFMSYLTSFEQVANLKVISAYHDNINNDQGLTYFIGLSETDAGEYYWRSVDHSKFNDGKFAANAWSEWHKIDCPINPYKSTIRPVIYKSRLYLLWLEQKEITKQTGNSKDGYQTETDYRYELKLAHIRYDGTWNTPITFDVNKKISELKLEKNRAPGLYCAGYQGEDTLLVMFYNQQDTLDSYKNASMQGLYIFADMASKDMTPEQSNVYRDNSYQQFDTNNVRRVNNRYAEDYEIPSSVSSRKDYGWGDYYLSMVYNGDIPTINYKAASSDLKIYISPKLRIIHNGYEGQKRNQCNLMNKYGKLGDKFIVYTSLGVNPNNSSNKLMFYPVYQYSGNTSGLNQGRLLFHRDTTYPSKVEAWIPGAKRSLTNQNAAIGDDYATDSLNKPDDLKQYIFMTDSKGTATDVSGPVEINTAISPAKVQIIVKAGGKEQTFTADKDVSIQPSPSFDEMNYQFNALEIDGSGLNFINNSASIDVTFTAFAEDGRKLGYESFSIPVTLKVSTDNALTLHHNENGAQYMQWQSYRTRLNTLFARQLVARATTGIDTILSMETQNIQEPQLGKGFYATFVIPPYNLSTHGDERWFKLYIKHVVDNNSHIIYSGQLTDTNINITLFIPLDDVPLNQDYHAKVYMTFKKSPSDGTWWGPHFVRDDKGIVTINPKSILTHFESVNVLNNISSEPMDFSGANSLYFWELFYYTPMLVAQRLLHEQNFDEANRWLKYVWSPSGYIVHGQIQNYQWNVRPLLEDTSWNSDPLDSVDPDAVAQHDPMHYKVSTFMRTLDLLIARGDHAYRQLERDTLNEAKMWYMQALHLLGDKPYLPLSTTWSDPRLDRAADITTQNAHDSAIVALRQNIPTPAPLS",binding result,[3],binds
